Test results reported in patent US20250186580A1 (TRIDEM BIOSCIENCE, published 2025).

Target: ActHIB, Haemophilus influenzae type b capsular polysaccharide (PRP) tetanus toxoid conjugate, withou (UniProt P04958 2-1315)
Test: competitive ELISA, soluble murine Fc-dectin-1a on coated glucan

B1: soluble murine Fc-dectin-1a receptor (InvivoGen) (Fc fusion)
chain: EYGHNSGRNPEEKDNFLSRNKENHKPTESSLDEKVAPSKASQTTGGFSQPCLPNWIMHGKSCYLFSFSGNSWYGSKRHCSQLGAHLLKIDNSKEFEFIESQTSSHRINAFWIGLSRNQSEGPWFWEDGSAFFPNSFQVRNTAPQESLLHNCVWIHGSEVYNQICNTSSYSICEKEL
- binding result: no binding
